Data reported in the supplement of paper PMC11865577.

What was measured:
Assay in all cases: pull-down binding Z-score (relative to library population); higher = stronger binding
[1] = tested on: TO-N3-2 (biotin conjugate); conditions: RNA library: Library-2
Summary of the method: (§1)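 The RNA library, end-labelled with Cy5 or Cy3, was heat-folded in phosphate/NaCl/KCl buffer, and 1 μg was incubated at 25 °C for 60 min with streptavidin beads carrying 100 pmol of biotin-conjugated small molecule. Hot SDS released the bound RNA, which was then hybridised to a DNA barcode microarray for 20 h at 55.5 °C. For scoring binding, signal from beads alone was subtracted, replicate barcoded probes were averaged after discarding the highest and lowest, and each value was turned into a Z-score from the library mean and standard deviation.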

TO-N3 (biotin conjugate) = conditions: RNA library: Library-2
Summary of the method: as §1

[2] = tested on: G-clamp-N3 (biotin conjugate); conditions: RNA library: Library-1 (pre-miRNA loops + repeats)
Summary of the method: as §1

[3] = tested on: TO-3-N3 (biotin conjugate); conditions: RNA library: Library-2
Summary of the method: as §1

[4] = tested on: TO-3-N3-2 (biotin conjugate); conditions: RNA library: Library-2
Summary of the method: as §1

Sequence | pull-down binding Z-score [1] | pull-down binding Z-score (TO-N3 (biotin conjugate)) | pull-down binding Z-score [2] | pull-down binding Z-score [3] | pull-down binding Z-score [4]
GCCUUGUUGCAUAUGGAUCAAGC [hsa-mir-103a-1] | 0.388 | -0.178 | 0.266 | -0.346 | -0.376
GGAGCUGGCUGCUGGCCUCAGUUCU [hsa-mir-5001] | 1.05 | 0.0865 | -1.38 | -0.269 | -0.449
CAUACAUAUGCCUACUACUACUUUCAUAUGUAGGCAUAUGUAUG [hsa-mir-7852] | -0.89 | -0.8 | -0.626 | -0.502 | -0.144
AGCUGGGUGGAGGCAGAGCU [hsa-mir-4291] | 1.4 | 2.34 | 1.95 | 2.46 | 1.23
GUUGAAAAAUAUCUAUGUAUUAGUAAAC [hsa-mir-649] | -0.74 | -0.151 | -0.475 | -0.0443 | -0.281
GUGAUAGGAUUUAUCAC [hsa-mir-4999] | -0.819 | -0.436 | -0.554 | -0.154 | -0.295
GAGGUCUUCCCAUGCUAAGAAGUCCUC [hsa-mir-2116] | -0.154 | 1.19 | -0.641 | 1.51 | 0.115
CAAUCAUGUGUAAUUAGAUAUGAUUG [hsa-mir-514b] | -1.33 | -1.38 | 0.559 | -1.06 | -0.732
GGGUCCUAAGGUGUGUCCUC [hsa-mir-1976] | 0.812 | 0.25 | -0.979 | -0.224 | -0.0978
UUGAGAACCAG [hsa-mir-4328] | 1.04 | 1.79 | -0.606 | 1.74 | 0.215
GUUUGCCUGUUAAUGAAUUCAAAC [hsa-mir-3129] | 0.0357 | 0.513 | -0.522 | 0.445 | 0.248
GCAGUCCUGUGGGAAUGAGAGAUGCCAAACUGGACCUGC [hsa-mir-3972] | 1.38 | 1.4 | 1.52 | 0.53 | 0.373
UUUAGAUUUAAAUAGUGAUUGUCUAG [hsa-mir-29b-1] | -0.27 | 0.194 | 0.526 | 0.267 | -0.0424
CUUAAUAGAUUAAUAUUUGUAAG [hsa-mir-506] | -1.02 | -0.877 | 0.431 | -0.743 | -0.335
UUUUGCCAUUACUUUUACAGGCAAAA [hsa-mir-548aa-1] | -1.28 | -0.991 | -0.445 | -0.497 | -0.412
CUGGGUUCUUAGAGGCCUAAUCCUCUACAAACUCAGUUU [hsa-mir-4305] | 0.546 | 0.144 | -1.01 | -0.124 | -0.258
UCACAGUUGGUUUCUGACACGUGG [hsa-mir-4535] | -0.0476 | 0.305 | 0.283 | 0.237 | -0.0393
GCAGGUAGCUUUUUGAGAUCUACUGC [hsa-mir-106a] | -0.248 | -0.711 | 0.281 | -0.704 | -0.00277
UUUUAUCAUUACUUUUAAUGGCAAAA [hsa-mir-548f-2] | -0.404 | 0.761 | 0.854 | 1.12 | 0.834
CCUGCAGCCCCCAGGUGGGGGG [hsa-mir-4271] | 0.398 | 0.659 | 0.67 | 0.75 | -0.105
GCUGGGGCGCGGGCUUUCGCUUUCAGUCGAGGGCUAGCGAGCGCAGC [hsa-mir-7846] | 1.12 | 1.12 | 1.79 | 0.914 | 0.105
GUGAUUGUCUUCCUCACUCAAUCAG [hsa-mir-4704] | -0.0609 | 0.0942 | -1.11 | 0.145 | -0.174
GUGAUUACAUUAAAACUUAAAAUUUCAC [hsa-mir-4719] | -0.663 | -0.105 | -1.01 | -0.0289 | -0.244
UGCCUACUACUGAUGACAUACAAUGUAAGUGCUCAUUUAGGCG [hsa-mir-5696] | -0.201 | -0.71 | -0.861 | -0.702 | -0.289
CUGGGUGGGACACUCAG [hsa-mir-4692] | 0.0278 | 0.91 | -0.443 | 1.24 | 0.311

Sequence | pull-down binding Z-score [1] | pull-down binding Z-score (TO-N3 (biotin conjugate)) | pull-down binding Z-score [2] | pull-down binding Z-score [3] | pull-down binding Z-score [4]
UGAAAGGUUUUUUCUCUCA [hsa-mir-4797] | -0.918 | -0.402 | 0.0116 | -0.332 | -0.248
ACUUUCUGGUGCCAGAAUGAAAGU [hsa-mir-512-2_512-1] | 0.129 | -0.538 | -0.15 | -0.391 | -0.218
CAGACCAUGCCACAUCCGUCUG [hsa-mir-7152] | -0.334 | -0.651 | -0.704 | -0.515 | -0.604
UCCACCCUGGUCCAGGUCCACAGCAGUGGA [hsa-mir-4644] | 0.479 | 0.441 | -0.617 | 0.173 | 0.0936
CGCUAGUAGUGGCG [hsa-mir-3960] | -0.869 | -0.435 | 0.808 | -0.152 | -0.644
AUUCUGGCUAGGUGAUCAUCAGAAU [hsa-mir-5583-1] | -0.726 | -1.07 | 0.902 | -0.794 | -0.406
CUUUAGGCAUUCAGAAUAGCUAAAG [hsa-mir-4662b] | -0.263 | -0.472 | -0.994 | -0.451 | -0.212
UGGUUAGCUUUUUUUUUUUUUUGAGAUGGAGUCUGGCUC [hsa-mir-8086] | -0.598 | -0.772 | -0.608 | -0.554 | 0.519
UUUGCUAUUACUUUUAAUGGUAAA [hsa-mir-548aj-2] | -1.19 | -0.932 | 1.61 | -0.666 | -0.502
AUUGUUGUGGGGUAGGGAUAUUAGGCCCCAAUUAGAAGAUAACUAU [hsa-mir-98] | 0.971 | 1.07 | 1.37 | 1.03 | 1.1
GGCCAUCUGCUAUUCGUCCACCAACCUGACUUGAUCC [hsa-mir-7111] | 0.477 | 0.256 | 0.0541 | -0.0213 | 0.0293
GAUCCUUUGUUCUGGAUC [hsa-mir-7856] | -0.63 | -0.266 | 0.436 | 0.118 | -0.283
CACACACAAUCACCGUGUG [hsa-mir-3118-2_3118-3_3118-4] | -1.24 | -0.218 | 0.27 | 0.0723 | -0.0846
AGUUACACAGCUCACGAGUGCCU [hsa-mir-370] | 0.694 | 0.113 | -0.352 | -0.261 | -0.0679
CCAUGCAACAUUUGG [hsa-mir-1302-4] | -0.696 | -0.359 | 0.29 | -0.262 | -0.327
UUGGGGAGGAGCUAAGAAGCCCCUACAGGGCCCAG [hsa-mir-4257] | 1.05 | 0.56 | 1.25 | 0.138 | 0.24
AACAACAGCAUCAGAAGCAACAUCAGCUUUAGUU [hsa-mir-569] | 1 | 0.9 | -1.03 | 0.728 | 0.364
CCCACCUCCAGCAUUGGG [hsa-mir-1267] | -0.466 | -0.663 | -0.68 | -0.458 | -0.393
UGAACAGUGAUUGGUUUCCGCUUUGUUCA [hsa-mir-27b] | -0.317 | 0.133 | -0.672 | 0.138 | 0.275
CUGAAAAUACAAAAUGGAAAAUUCCAG [hsa-mir-4494] | -0.365 | -0.0822 | -1.38 | -0.0909 | 0.256
UUGGGAUCCACCUUUCUCUCGA [hsa-mir-196b] | -0.031 | 0.471 | -0.507 | 0.578 | 0.21
CCGGCCCGUUAGUUGCCCGGGCCCG [hsa-mir-3181] | 0.914 | -0.422 | -0.29 | -0.57 | -0.397
CUCAGGAAUUGGAUAAGCUUUUCUGAG [hsa-mir-5194] | -0.323 | -0.399 | 0.541 | -0.212 | -0.272
AGGCAACAUGGCCGAGAGGCCGGGGCCU [hsa-mir-564] | 0.551 | -0.12 | 2.93 | -0.144 | -0.533
GACAUCUGGGCCAACUCUGAUCUC [hsa-mir-6515] | 0.777 | 0.113 | -1.32 | -0.163 | -0.126

Sequence | pull-down binding Z-score [1] | pull-down binding Z-score (TO-N3 (biotin conjugate)) | pull-down binding Z-score [2] | pull-down binding Z-score [3] | pull-down binding Z-score [4]
AGUCCAAAGGAAAGGGCU [hsa-mir-8077] | -0.0277 | 0.822 | -0.578 | 0.999 | 0.232
ACAAUAUGCUAUUAUAAUCGUAUGGCAUUGU [hsa-mir-2355] | -0.994 | -1.18 | 0.228 | -0.919 | -0.546
UGCACCACUCUCCCUGUGAUGAGGUGAA [hsa-mir-4786] | 0.456 | -0.255 | -0.896 | -0.535 | -0.354
UGUUCGCUUUAUUUAUGAUGAAUCA [hsa-mir-539] | -1.01 | -0.916 | 0.0951 | -0.769 | -0.121
UUUCUGAAUUUGUGAGA [hsa-mir-4463] | -0.751 | -0.277 | -0.0109 | -0.00836 | -0.191
UCCUAGGCGGGUCGCUGCGGUACCUCCCUCCUGUCUGUGGCGGUGGGAUCCCGUGGCCGUGUUUUCCUGGUG [hsa-mir-663b] | 1.55 | 0.683 | -0.826 | -0.114 | -0.0831
CCUUGUGAAUGUCGGGCAAUGG [hsa-mir-4701] | 0.503 | 0.267 | 1.59 | -0.0355 | 0.357
CUGGGAGGUGUGAUCCCGUGCUUCCUGG [hsa-mir-3689b] | 0.409 | -0.713 | -0.593 | -0.788 | -0.408
AUAUAAAAUGCAAUUA [hsa-mir-3945] | -0.448 | 0.0171 | -1.21 | 0.256 | 0.327
UGCAAAUGCAAAGUUGGCUUUUGCA [hsa-mir-3680-2_3680-1] | -0.878 | -0.954 | 1.8 | -0.669 | -0.253
CUGAACUGGGCUGGGUUGAGCUGGGCUGGGCUGAGUUGAG [hsa-mir-4538] | 2.71 | 3.25 | 1.51 | 4.18 | 5.75
AUUUAUGUGAACUAAAAUAUAAAU [hsa-mir-513b] | -0.599 | 1.03 | -0.828 | 1.21 | 0.14
UGUAUAUAGCAUAUGUGUAUACAUACACACACACACACACACACACACA [hsa-mir-8485] | -0.143 | 0.167 | -1.14 | 0.396 | -0.16
UUAUUCAGAGAGGCUAGAUCCUCUGUGUUGAGAAGGAUCA [hsa-mir-433] | -0.0231 | -0.151 | 0.503 | -0.385 | 0.23
GUCUGUUUUCUUCAUGGUUUUCUGAC [hsa-mir-6759] | -0.557 | -0.999 | 0.125 | -0.779 | -0.481
ACAUGCAGUAUUUGG [hsa-mir-1302-8] | -0.0326 | -0.242 | 0.976 | -0.326 | -0.047
GGUGGGCCUCUGCUCUGGCCCCUCC [hsa-mir-1343] | 0.301 | 0.0649 | 0.11 | 0.0146 | -0.315
GUUACUAAUCUAACUAAUUGUAAC [hsa-mir-582] | -0.722 | 0.00217 | 1.11 | 0.0863 | 0.0952
CCAGGCCCCACGGAGAACCAGGGCACCUGG [hsa-mir-8058] | 0.492 | -0.188 | 0.303 | -0.288 | -0.353
GAUAUGCCAUUAUGUGGGUCAUGAGGUGGUGA [hsa-mir-6864] | 1.54 | 0.738 | 0.225 | 0.197 | 0.416
AUGCAUGGCUGGUGGCGGCGUGCAG [hsa-mir-6722] | 2.13 | 1.56 | 0.533 | 0.897 | 0.74
GAUCCGGGAACCCACAGCCCCGUUC [hsa-mir-6783] | 1.08 | 0.886 | 0.0468 | 0.496 | 0.149
GCAGCUAGUAUUCUCACUCCAGUUGC [hsa-mir-153-1] | 0.592 | -0.204 | -1.31 | -0.447 | -0.655
